The assay deals with TMHC2, designed transmembrane (TM) homodimer, monomeric construct with N-terminal SpyTag and SnoopTag (wild type). In words: single-molecule magnetic tweezers.

B1: peptide II (13-aa peptide …) (peptide)
peptide: TRTEIIRELERSL
Regarding B1, the increase of partial TMHC2 dimerization up to the I1 state with peptide II is 41%, the percent of traces with only partial TMHC2 dimerization with 10 μM peptide was determined as 62% and the probability of complete TMHC2 dimerization with 10 μM peptide came out at 38%.

The record behind these values is article doi:10.1101/2025.01.22.634249.
